How the values were obtained:
515 = assay: cell binding (labeled cells %); HSC-T6 cells; apparent Kd
422 = assay: as above

B1: HSC-T6 cells (receptor)
chain: QAVDLDALCSYTWEAVDSKNNAVYKINPCGHVDNPRCGPTSAVCMCDLKSENCRSVGDSLLRSSAKSLLEFNTTTGCQPSEHRIQTSITFLCGKTLGTPEFVTATDCVHYFEWRTTAACKKDIFKADKEVPCYVFDDKLQKHDLNPLIKLNGGYLVDDSDADASLFINVCRDIDSLRDPSTQLRVCPAGTAACLLKGNQAFDVGRPKEGLKLLSKDRLVLTYVKEEGEKPDFCNGHSPAVTVTFVCPSERREGTIPKLTAKSNCRYEVEWITEYACHRDYLESETCSLSSEQHDIAIDLSPLAQHEEGSPYVADGGEYRFFMNVCGDTKVSLCNKEAAVCQEKKVDSTQVKIAGRHQNQTLRYSDGDLTLIYSGGDECSSGFQRMSVINFECNKTAGQDGRGEPVFTGEVDCTYFFTWDTKYACVKEKEDLLCGAIDGKKRYDLSVLARHSESEQNWEAVDGSQAESEKRNFFINVCHRVLQAGKAKNCPEGAAVCAVDKSGSKNLGKFVSSPTKEKGHIQLSYSDGDDCGNDKKITTNITFVCKPGDLESAPVLRAAGPDGCSYEFEWHTAAACVLSQTEGENCTVLDAQAGFSFDLSLLTKKNGAYKVETDKYDFYINVCGPVSVNLCQSNSGACQVAKSGKSWNLGLSNTKLTYYDGMIQLSYRNGTLYNNEKHTPRSTLITFLCDRDAGVGFPEYQEEDNSTYNFRWYTSYACPEEPLECMVTDPSMMEQYDLSSLVKFEGGRGGNWYAMENSREHFTRRKYYLNVCRPLNPVPGCDRYASACQMKYENNEGSLAETVAISNLGVAKTGPVVEESGSLLLEYVNGSACTTSDGRLTTYSTRIHLVCGRGTMNSHPIFTFNWECVVSFLWNTEAACPIQTITDSDQACSIRDPNSGFVFNLSPLNYSQGHMVLGIGKTFVFNICGTMPACGTVAGKPALGCEAETKIKDIKDLKPERPVGMEKSLQLSAEGFLTLTYKGSSPSDRGTAFIIRFICNGDIYPGTPKFLHQDIDSARGIRNTFFEFETALACIPSVVDCQVTDPAGNEYDLSALSMVRKPWTAVDTSVHGKKRRFYLSVCTPLPYIPGCDGIAMGSCMVSEDKSQNLGVVQISPQATGNGSLSILYVNGDRCGNQRYSTRIVFECAQTSGSPMFQLLNNCEYVFVWRTVEACPVVREEGDNCQVKDPRHGNLYDLKPLALNDTIISAGEYTYYFRVCGKLSLDVCSAHDGSKAVSSCQEKKGPQGFQKVAGLLNQKLTFENGLLKMNYSGGDTCHKVYQRSTTIYFYCDRTTQKPVFLKETLDCSYLFEWRTQYACPPFNVTECSIQDEAGNSIDLSSLSRYSDNWEAVTRTGATEHYLINVCKSLSPQAGTDPCPPEAAVCLLDGSKPVNLGRVRDGPQWTAGVTVLKYVDGDLCPDKIRKRSTIIRFTCSDSQVNSRPLFISAVQDCEYTFSWPTPAACPVKSNIHDDCQVTNPSTGHLFDLSSLSGKAGITASYSEKGMVFMSICEENVNCSPGVGACFGQTRISVGQASKRLSYKDQVLQLVYENGSPCPSKSGLRYKSVISFVCRPEAGPTNRPMLISLDKQSCTLFFSWHTPLACEQATECTVRNGSSIIDLSPLIHRTGGYEAYDESEDDTSDTTPDFYINICQPLNPMHGVPCPAGASVCKVPVDGPPIDIGRVTGPPIFNPVANEVYLNFESSTPCLADKYMNYTSLIAFHCRRGISMVTRDAHTYSIGVCTTAADLDQEGCKDGGVCLLSGSKGASFGRLASMQLDYRHQDEAVILSYVNGDPCPPETEDGEPCVFPFIYKGETYDECVLEGRAKLWCSKTANYDRDHEWGFCRPSTLSICAKEYIKVPWTALREPAFARRVPLVKSRFWGLFILKNWKS
What does the source list for B1?
Kd 515: 57.6 µM; Kd 422: 402 µM

Source: US20170101442A1 (published 2017)
